Measured values taken from article PMC2139828.

Assays:
Assay in all cases: SDS-PAGE under nonreducing conditions
[1] = biological target: rFN(AC), recombinant human fibronectin isoform containing EDA but lacking EDB (human)
[2] = biological target: rFN(BAC), recombinant human fibronectin isoform containing both EDA and EDB segments (human)
[3] = biological target: rFN(C), recombinant human fibronectin isoform lacking both EDA and EDB segments (human)

“rFN(AC), recombinant human fibronectin isoform containing EDA but lacking EDB (natural protein)” was tested, and the stoichiometry N [1] was 2.
In the case of “rFN(BAC), recombinant human fibronectin isoform containing both EDA and EDB segments (natural protein)”, the stoichiometry N [2] is reported as 2.
Work on “rFN(C), recombinant human fibronectin isoform lacking both EDA and EDB segments (natural protein)” yielded a stoichiometry N [3] of 2.
